Measured values published in paper PMC3493480.

Assays:
[1] = target: bromodomain protein 4 (Brd4), endogenous (human (endogenous in C33A and 293T)) (UniProt O60885)
[2] = target: bromodomain protein 4 (Brd4), endogenous (human (endogenous in C33A and 293T)) (UniProt O60885); remark: listed apart in the source
[3] = target: bromodomain protein 4 (Brd4), endogenous (human (endogenous in C33A and 293T)) (UniProt O60885); experiment: co-IP; nuclear extracts of transfected C33A or 293T cells IPed with polyclonal Brd4 antibody (NA or CA) or normal rabbit IgG, immunoblot; immuno-complexes unchanged at 300 mM NaCl, only slightly dissociated at 500 and 1000 mM

Row | Substance | replication of the MCV genome (LT expressed from the viral genome) in 293T cells co-transfected with 0, 7 or 9 µg pcDNA4C-Brd4 471-730, DpnI-resistant DNA by Southern blotting at 24 h: inhibition [1] [%] | MCV episome copy number by qPCR in 293-4T cells (stably expressing MCV LT and sT) super-transfected with the Brd4 471-730 DNI construct, 24 h to 4 days: reduction (∼60% within the first 24 h) [2] [%] | percent of the MCV LT co-immunoprecipitated [3] [%]
1 | MCV large T antigen (LT) expressed from pADL* (natural protein) | 92 | 94 | 20
2 | MCV large T antigen (LT), Xpress-tagged, from pcDNA4C-MCV LT (natural protein) |  |  | 40
